Key:
[1] = target: p300 histone acetyltransferase (full length, purified recombinant) (UniProt Q09472 2-2414, limits assumed); test: cell-based or functional assay
[2] = target: PCAF histone acetyltransferase (full length, purified recombinant) (UniProt Q92831 1-832, limits assumed); test: cell-based or functional assay
Sequence of PCAF histone acetyltransferase (full length, purified recombinant) (Q92831 whole entry): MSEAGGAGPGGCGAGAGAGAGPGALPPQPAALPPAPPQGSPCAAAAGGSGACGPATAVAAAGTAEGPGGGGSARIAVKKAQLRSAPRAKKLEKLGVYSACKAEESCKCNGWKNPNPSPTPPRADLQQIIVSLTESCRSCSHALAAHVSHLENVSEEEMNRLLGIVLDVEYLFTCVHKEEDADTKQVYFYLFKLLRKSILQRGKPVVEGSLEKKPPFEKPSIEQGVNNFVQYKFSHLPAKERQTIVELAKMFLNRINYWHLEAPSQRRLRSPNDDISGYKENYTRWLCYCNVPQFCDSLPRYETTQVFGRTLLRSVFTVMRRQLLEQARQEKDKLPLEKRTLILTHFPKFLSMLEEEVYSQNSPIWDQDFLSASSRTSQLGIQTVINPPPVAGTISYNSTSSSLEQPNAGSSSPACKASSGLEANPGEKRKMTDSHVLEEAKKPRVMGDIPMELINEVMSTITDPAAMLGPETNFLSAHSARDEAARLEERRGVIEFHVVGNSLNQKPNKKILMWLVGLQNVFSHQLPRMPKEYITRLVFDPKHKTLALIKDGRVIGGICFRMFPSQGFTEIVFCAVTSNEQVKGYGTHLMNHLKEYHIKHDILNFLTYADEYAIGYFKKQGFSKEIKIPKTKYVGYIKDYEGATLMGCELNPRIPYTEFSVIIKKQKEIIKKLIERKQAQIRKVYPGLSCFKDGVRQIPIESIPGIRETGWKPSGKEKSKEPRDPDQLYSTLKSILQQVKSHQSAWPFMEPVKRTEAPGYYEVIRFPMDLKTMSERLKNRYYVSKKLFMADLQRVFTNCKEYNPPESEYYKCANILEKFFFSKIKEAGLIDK

Sequence of p300 histone acetyltransferase (full length, purified recombinant) (Q09472 2-2414 limits assumed): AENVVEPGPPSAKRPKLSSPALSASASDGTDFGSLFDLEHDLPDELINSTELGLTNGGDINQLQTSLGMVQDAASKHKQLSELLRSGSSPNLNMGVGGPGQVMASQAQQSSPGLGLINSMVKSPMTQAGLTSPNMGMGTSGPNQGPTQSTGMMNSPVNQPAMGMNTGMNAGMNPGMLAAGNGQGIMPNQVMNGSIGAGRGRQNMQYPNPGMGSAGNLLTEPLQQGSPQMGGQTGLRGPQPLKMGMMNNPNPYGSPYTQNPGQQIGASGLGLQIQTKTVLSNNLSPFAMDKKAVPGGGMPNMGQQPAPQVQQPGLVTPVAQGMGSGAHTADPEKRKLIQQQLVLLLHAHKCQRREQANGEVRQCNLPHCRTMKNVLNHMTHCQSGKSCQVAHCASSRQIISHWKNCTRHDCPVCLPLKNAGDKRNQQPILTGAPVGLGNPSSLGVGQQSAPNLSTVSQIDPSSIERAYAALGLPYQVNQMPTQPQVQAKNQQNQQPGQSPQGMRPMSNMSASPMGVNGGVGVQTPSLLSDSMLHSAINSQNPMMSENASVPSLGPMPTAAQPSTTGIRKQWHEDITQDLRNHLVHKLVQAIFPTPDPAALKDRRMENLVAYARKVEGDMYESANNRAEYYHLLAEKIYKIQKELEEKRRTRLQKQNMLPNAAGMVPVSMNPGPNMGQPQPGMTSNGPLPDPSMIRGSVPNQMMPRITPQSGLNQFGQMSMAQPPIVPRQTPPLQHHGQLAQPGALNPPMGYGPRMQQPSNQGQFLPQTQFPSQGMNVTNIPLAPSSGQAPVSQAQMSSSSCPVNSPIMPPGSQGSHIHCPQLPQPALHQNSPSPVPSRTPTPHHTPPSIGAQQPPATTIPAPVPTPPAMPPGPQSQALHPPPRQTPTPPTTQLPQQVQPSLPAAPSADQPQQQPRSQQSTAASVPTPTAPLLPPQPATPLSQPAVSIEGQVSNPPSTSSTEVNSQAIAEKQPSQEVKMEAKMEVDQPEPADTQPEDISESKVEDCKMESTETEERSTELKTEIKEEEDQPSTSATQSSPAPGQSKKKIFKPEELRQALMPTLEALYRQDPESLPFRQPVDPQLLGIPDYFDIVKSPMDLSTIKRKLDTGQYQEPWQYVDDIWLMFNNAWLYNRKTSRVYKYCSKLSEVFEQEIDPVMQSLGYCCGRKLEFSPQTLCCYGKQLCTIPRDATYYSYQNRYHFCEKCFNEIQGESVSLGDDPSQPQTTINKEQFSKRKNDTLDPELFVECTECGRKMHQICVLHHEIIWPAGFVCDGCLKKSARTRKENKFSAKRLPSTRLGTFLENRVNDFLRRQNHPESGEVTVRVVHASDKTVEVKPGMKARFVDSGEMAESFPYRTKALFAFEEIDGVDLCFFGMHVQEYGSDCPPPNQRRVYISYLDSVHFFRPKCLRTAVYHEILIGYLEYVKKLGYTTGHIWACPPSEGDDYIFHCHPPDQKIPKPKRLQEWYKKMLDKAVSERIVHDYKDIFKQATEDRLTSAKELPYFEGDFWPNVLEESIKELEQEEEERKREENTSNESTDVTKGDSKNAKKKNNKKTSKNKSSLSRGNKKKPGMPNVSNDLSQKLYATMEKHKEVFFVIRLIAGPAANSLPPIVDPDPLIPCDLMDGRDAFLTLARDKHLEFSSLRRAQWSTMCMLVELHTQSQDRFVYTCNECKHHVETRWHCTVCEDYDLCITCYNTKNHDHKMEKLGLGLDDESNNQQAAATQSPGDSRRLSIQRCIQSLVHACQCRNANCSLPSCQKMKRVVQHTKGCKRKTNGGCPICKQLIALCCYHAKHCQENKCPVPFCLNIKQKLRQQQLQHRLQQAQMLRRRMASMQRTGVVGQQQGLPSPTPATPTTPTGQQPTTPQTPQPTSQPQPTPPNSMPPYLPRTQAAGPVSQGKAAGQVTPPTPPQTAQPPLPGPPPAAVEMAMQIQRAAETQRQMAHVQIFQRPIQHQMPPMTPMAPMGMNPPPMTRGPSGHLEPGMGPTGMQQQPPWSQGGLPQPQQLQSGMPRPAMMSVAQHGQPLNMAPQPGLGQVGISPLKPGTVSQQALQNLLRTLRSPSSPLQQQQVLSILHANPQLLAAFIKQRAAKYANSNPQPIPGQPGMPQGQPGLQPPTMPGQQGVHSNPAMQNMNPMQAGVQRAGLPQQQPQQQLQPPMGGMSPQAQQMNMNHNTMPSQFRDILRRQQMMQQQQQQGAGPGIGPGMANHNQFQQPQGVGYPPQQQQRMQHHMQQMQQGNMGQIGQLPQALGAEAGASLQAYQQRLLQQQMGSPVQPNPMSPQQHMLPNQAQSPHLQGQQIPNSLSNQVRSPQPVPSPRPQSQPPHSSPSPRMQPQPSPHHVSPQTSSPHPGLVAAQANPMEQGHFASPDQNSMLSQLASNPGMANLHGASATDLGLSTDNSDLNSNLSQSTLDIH

IC50 with p300 (µM), HAT activity inhibition, mixed histones [1]: > 30 µM
IC50 with PCAF (µM), HAT activity inhibition, mixed histones [2]: > 20 µM
B1: H3-CoA-7 (peptide)
peptide: Ac-GGKAPRK-NH2
modifications: also: further groups not given here
